Here are results for 1 molecule from US20170298146A1 (MODIQUEST B V, published 2017).

In assay [1] the target is T1, msVim XS/XL (mouse, also: biotin label).
T1 construct: also called mouse vimentin peptide
T1 peptide: YVT[Cit]SSAV[Cit]L[Cit]SSVP
The assay is described as follows: peptide ELISA, 0.08 ug/well. The procedure: (§1) Biotin and citrulline-containing peptides derived from fibrinogen and vimentin were immobilized on NEUTRAVIDIN®-coated 96-well ELISA plates (0.3 μg/well). CFC-1 and CFC-0 were coated at the same concentration and served as positive and negative controls respectively for specific anti-citrulline reactivity and as coating controls. Non-coated wells were used to test for aspecific binding of the antibodies. […] Detection of bound anti-citrulline antibodies was performed by incubating the wells with rabbit-anti-human-HRP (1:2000) for one hour at RT followed by incubation with TMB substrate. The resulting OD (y-axis) is a measure for antibody binding.
(§2) Biotin-labeled and citrulline-containing fibrinogen and vimentin peptides (Table 5) were also tested for reactivity with the therapeutic antibodies. Peptides were coated on 96-well NEUTRAVIDIN®-ELISA plates.
Background: In an ELISA, binding on a coated surface is turned into a signal by an enzyme label.

For assay [2], the target named is T2, msFibα XG (mouse, X at position 8 is citrulline; biotin label).
T2 peptide: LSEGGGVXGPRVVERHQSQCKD
The assay is described as follows: peptide ELISA, 0.08 ug/well. The procedure:
as §1, §2

Assay [3] addresses T3, CFC-1.
T3 construct: Positive control for anti-citrulline reactivity; also called cfc1 XG
The assay is described as follows: peptide ELISA, 0.08 ug/well. As for the experimental part: as §1, §2

The target of assay [4] is T4, huPAD2 deiminated human recombinant histone H3 (human).
T4 construct: also called H3/p2
Kind of assay: ELISA, 10 ug/well. As for the experimental part: (§3) CFC-1 and CFC-0 were coated at the same concentration and served as positive and negative controls, respectively, for specific anti-citrulline reactivity and as coating controls. Non-coated wells were used to test for aspecific binding of the antibodies. […] Detection of bound anti-citrulline antibodies was performed by incubating the wells with rabbit-anti-human-HRP (1:2000) for one hour at RT followed by incubation with TMB substrate. The resulting OD (y-axis) is a measure for antibody binding. H1=recombinant histone 1; H1/p2=huPAD2 recombinant histone 1; H1/p4=huPAD4 recombinant histone 1 and so forth (x-axis).

Assay [5] concerns the target T5, huPAD2 deiminated human recombinant histone H2A (human).
T5 construct: also called H2A/p2
The assay is described as follows: ELISA, 10 ug/well. The procedure: as §3

Assay [6] addresses T6, human recombinant histone H2A (human).
T6 construct: Non-deiminated
The assay is described as follows: ELISA, 10 ug/well. As for the experimental part:
as §3

Assay [7] deals with T7, huPAD4 deiminated human recombinant histone H2A (human).
T7 construct: also called H2A/p4; huPAD4 deiminated histone 2A
Kind of assay: ELISA, 10 ug/well. As for the experimental part:
as §3

For assay [8], the target named is T3, CFC-1. Kind of assay: ELISA, 10 ug/well. As for the experimental part:
as §3

Assay [9] concerns the target T8, human recombinant histone H2B (human).
T8 construct: Non-deiminated
The assay is described as follows: ELISA, 10 ug/well. The procedure: as §3

Assay [10] deals with T9, huPAD2 deiminated human recombinant histone H2B (human).
T9 construct: also called H2B/p2
The assay is described as follows: ELISA, 10 ug/well. As for the experimental part: as §3

Assay [11] has as its target human recombinant histone H4 (human, UniProt P62805 2-103). Kind of assay: ELISA, 10 ug/well. As for the experimental part:
as §3

Assay [12] deals with T10, huPAD4 deiminated human recombinant histone H2B (human).
T10 construct: also called H2B/p4
Kind of assay: ELISA, 10 ug/well. As for the experimental part: as §3

The target of assay [13] is T11, Histone 2A citrulline-containing peptide 5 (human, also: biotin label).
T11 peptide: VGRVH[Cit]LLRKGN
Kind of assay: peptide ELISA, 0.000128 ug/well. As for the experimental part: as §1, with “histone 2A” for “fibrinogen and vimentin”
(§4) Ninety-six-well ELISA plates were coated with NEUTRAVIDIN® (0.1 μg/well) by overnight incubation at 4° C. Wells were washed five times with PBS-TWEEN®-20 (PBS-T) and blocked by a one-hour incubation with PBS-T+1% Bovine serum albumin (BSA) at room temperature (RT). After five more washes with PBS-T, wells were incubated for one hour at RT with histone-derived citrulline and biotin-containing peptides (0.3 μg/well). […] Wells were washed five times with PBS-T and incubated with rabbit-anti-human-HRP (1:2000) for one hour at RT followed by five washes with PBS-T and three wash steps with PBS. Wells were incubated for five minutes with TMB substrate before stopping the reaction with 2 M H₂SO₄. Optical density was measured by 450 nm and is a measure for the affinity of the antibodies used.

The target in assay [14] is T12, Histone 2A citrulline-containing peptide 1 (human, also: biotin label).
T12 construct: also called AAASGXGKQGGK
T12 peptide: AAASG[Cit]GKQGGK
The assay is described as follows: peptide ELISA, 0.000128 ug/well. The procedure: as §1, with “histone 2A” for “fibrinogen and vimentin”
as §4

Assay [15] has as its target T13, Histone 2A citrulline-containing peptide 9 (human, also: biotin label).
T13 peptide: DNKKT[Cit]IIPRHL
Kind of assay: peptide ELISA, 0.000128 ug/well. As for the experimental part: as §1, with “histone 2A” for “fibrinogen and vimentin”
as §4

Assay [16] has as its target T14, Histone 2A citrulline-containing peptide 3 (human, also: biotin label).
T14 peptide: KSRSS[Cit]AGLQFP
Kind of assay: peptide ELISA, 0.000128 ug/well. The procedure:
as §1, with “histone 2A” for “fibrinogen and vimentin”
as §4

In assay [17] the target is T15, Histone 2A citrulline-containing peptide 11 (human, also: biotin label).
T15 peptide: LQLAI[Cit]NDEELN
Kind of assay: peptide ELISA, 0.000128 ug/well. As for the experimental part: as §1, with “histone 2A” for “fibrinogen and vimentin”
as §4

The target of assay [18] is T16, Histone 2A citrulline-containing peptide 10 (human, also: biotin label).
T16 peptide: TRIIP[Cit]HLQLAI
The assay is described as follows: peptide ELISA, 0.000128 ug/well. As for the experimental part: as §1, with “histone 2A” for “fibrinogen and vimentin”
as §4

In assay [19] the target is T3, CFC-1. The assay is described as follows: peptide ELISA, 0.000128 ug/well. The procedure: as §1, with “histone 2A” for “fibrinogen and vimentin”
as §4

Assay [20] deals with T17, Histone 2A citrulline-containing peptide 2 (human, also: biotin label).
T17 peptide: AKAKS[Cit]SSRAGL
Kind of assay: peptide ELISA, 0.000128 ug/well. As for the experimental part:
as §1, with “histone 2A” for “fibrinogen and vimentin”
as §4

Assay [21] addresses T18, Histone 2A citrulline-containing peptide 6 (human, also: biotin label).
T18 peptide: VHRLL[Cit]KGNYSE
Kind of assay: peptide ELISA, 0.000128 ug/well. The procedure:
as §1, with “histone 2A” for “fibrinogen and vimentin”
as §4

The target of assay [22] is T19, Histone 2A citrulline-containing peptide 8 (human, also: biotin label).
T19 peptide: AGNAA[Cit]DNKKTR
The assay is described as follows: peptide ELISA, 0.000128 ug/well. The procedure:
as §1, with “histone 2A” for “fibrinogen and vimentin”
as §4

In assay [23] the target is PREDICTED: similar to 60S ribosomal protein L29 (Cell surface heparin-binding protein HIP) [Homo sapiens] (Homo sapiens). Kind of assay: IP from huPAD4 deiminated HEK293 lysate, nLC LTQ FTMS, emPAI; against RhmAb2.101.
Method: Beads were subjected to three washes with 1 ml IPP500, one wash with 1 ml IPP150 (10 mM Tris/HC1 pH 8.0, 150 mM NaCl, 0.1% NP40 and 0.1% TWEEN®-20), and subsequently incubated at room temperature with 300 μl deiminated HEK293 lysate for two hours under constant rotation. Beads were washed three times with 1 ml of IPP150 after which a small part has been used for SDS-PAGE electrophoresis to determine if the IP procedure with the HEK293 cells was successful.
To remove PEGs from the immunoprecipitated proteins, they were loaded on a 15% SDS-PAGE gel and run shortly. […] Samples were diluted 50 fold before subjecting them to nLC LTQ FTMS ULTRA analysis.

Non-standard residues stand in square brackets, D forms with d. No end group written: not given here. Cit = NC(=O)NCCC[C@H](N)C(=O)O

B1: RhmAb2.102 (antibody, human IgG1, lambda)
heavy: not shown
light: QSVLTQPPSMSAAPGQKVTISCSGSSSNIGNNYVSWYQQVPGTAPKLLIYDDNKRPSGIPGRFSGSKSATSATLGITGLQAGDEADYYCGSWDDNLSVVLFGGGTKLTVLGQPKAAPSVTLFPPSSEELQANKATLVCLISDFYPGAVTVAWKADSSPVKAGVETTTPSKQSNNKYAASSYLSLTPEQWKSHRSYSCQVTHEGSTVEKTVAPTECS
notes: Human IgG1 lambda; also called Rhm2.102
For the molecule B1, the OD was determined as 0.515 OD in assay [1]; 0.237 OD in [2]; 3.03 OD in [3]; 2.44 OD in assay [4]; 3.41 OD in assay [5]; 0.428 OD in [6]. Further, the OD in assay [7] is 3.42 OD; in assay [8], 3.48 OD; in assay [9] it was 0.247 OD; in assay [10] it was 0.31 OD; in assay [11], 0.825 OD; in [12], 0.229 OD. In addition, the OD in assay [13] stood at 0.059 OD; in assay [14] it was 0.128 OD; in assay [15] it was 0.055 OD; in [16], 0.063 OD; in assay [17], 0.059 OD; in [18], 0.057 OD. Further, the OD in assay [19] was 0.749 OD; in assay [20], 0.075 OD; in assay [21], 0.054 OD; in assay [22] it was 0.055 OD. In addition, the “Ratio 102/101” value in [23] is 1.
